Test results as given in the nanobody polyreactivity screen of Harvey et al. (2022).

Assay: yeast display, Sf9 membrane polyspecificity reagent, FACS + sequencing; frameworks hold sequencing errors
How it was run: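 Polyreactivity labels are assigned by the sorting gate from which each nanobody was recovered. The gates were low and high (top ~1%), set on anti-HA fluorescence for expression and streptavidin fluorescence for reagent binding. Before sorting, galactose-induced (36–48 hours) yeast display cells were stained for 1 hour at 4 °C with 10% biotinylated, detergent-solubilized Sf9 membrane reagent.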

Sequence	polyreactivity (PSR sort gate)
PVQLVESGGGLVHAGGRHRLSSAASGSIFNYYPMGWYRKAPGTERELVATISAGGSTNYADSVTGRFTISRDNAKNTVYLHKNRLKPEDTAVYYCNRARYYLTSYTYLTSYDYWGQGTQGTVSS	high polyreactivity
QVQLVESGGGLVQAGGSLRLICAASGSIFHRYTMGWYRQAPGKERELVAAINYSGSTTHYADSVKGRFTISRDNAKNTVYLQMNSLKPEDTAVYYCAAGSTRWYPTRVRYDYWGQGTQVTVSS	low polyreactivity
QVQLEESGGGLVQAGGRLRLSCAASGSTFRNYAMGWNITAAGKERELVAAISTNGGRTFYADSVKGRFTISRDNAKNTVYLQMNSLKPEDNAVYYCAAEYGLYAPGYYYWGQGTQVTVSS	low polyreactivity
LVQLVESGGGLVQAGGSLRLSCAASGFIFAIYDMGWYRQAPGKERELVAAITSSSSTYADSVKGRFTISRDNAKNTVYLQMNSLKPEDTAVYYCAADTYSYRYSNDYWGQGTQVTVSS	low polyreactivity
QVQLVESGGGLVQAGGSLRLSCADSGFIFGYYAKGWYRQAPGKERELVADISRGGNTNYADSVKGRFTISRDNAKNTVYLQMNSLKPEDTAVYYCARYRRGKMDYCGQGTQVTVSS	high polyreactivity
QVQLVESGGGLVQAGGSLRLSCAASGSTFAYYAMGRYRQAPGKERELVAAISTIAGRTYYADSVKGRFTISRDTAKNSVSLQMNSLNPEDTAFYYCNAYWWFFGGYDYWGQGTQVTVSS	high polyreactivity
QVQLVESGGGLVQAGGSLRLSCAASRRIFSQYAMGWSRQAPGKERELVAAITWRGASTYYADSVKGRFTISRDNAKNTVYLQMNSLKPEDTAVYYCAAGYPPGRYYRVRWVGYWGQGTQVTVSS	high polyreactivity
QVQLVESGGGLVQAGGSLRLSCAASGRIFDQNAMGWYRQAPGKERELVAAITWSGGSTNYADSVKGRFTISRDNAKNTVYLQMNSLKPEDTAVYYCATDGKPSFYSFDYWGQGTQVTVSS	low polyreactivity
QVQLVESGGGLVQAGGSLRLRCAASGSIFYRNPMGWYRQAPGKESELVAAITSRGGRTYYADSVKGRFTISRDNAKNTVYLQMNSLKPEDTAVYYCNKRDVYSTSDYDYWGQGTQVTVSS	high polyreactivity
QVQLEESGGGLVQSGGSLRLSCAASGITFARYTMGWYRQAPGKERELVAAISSAGNTYYGDSVKGRFTISRDNAKNTVYLQMNSLKPEDTAVYYCAREYTYYPRWVGYDAYGEDYWGQGTQVTVSS	low polyreactivity
QVQLQESGGGLVQAGGSLRLSCAASGTIFRFRYMGWHRQAPGKERELVAGINGGTTTYYADSVIGRFTISRDNAKNTVYLQMNSLKPEDTAVYYCAADVNYYQHRLYYWGQGTQVTVSS	low polyreactivity
QVQLVESGGVLVQAGGSLRLSCAASGRIFGRYAMGWYRPAPGKERELVAAISWSGDSTYYADSVKGRFTISRDNSTNTVYLHMNSLKPEDTAVYYCATGGRGGRRYEYWGQGTQVTVSS	low polyreactivity
QVQLVESGGGLVQAGGSLRLSCAASGFIFDNYAMGWYRQAPGKERELVAAISRSGGSTYYADSVKGRFTISRDNAKNTVYLQMNSLKPEDTAVYYCAARGKFGIVRYDYWGQGTQVTVSS	high polyreactivity
QVQLVESGGGLVQAGGSLRLSCAASRRTYWYNAMGWYRQSPGKERELVAAISRAGRTYYADSVKGRFTISRDNAKNTVYIQMNSLKPEDTAVYYCNVVLFGDSGNLQYYYWGQGTQVTVSS	high polyreactivity
QVQLVESGGGLDQAGGSLRLSCADSGSLSDWNAMVSYRQAAGKEREWVAAINWSGDTTYYADSVKGRFTISRDNAKNTFYLQMNCLNPEDTAVYYCAAELVVDYDWYDYWGQGTQVTVSS	high polyreactivity
QVQLVESGGGLVQAGGSLRLSCAASGSTFWYYDMGWYRQAPGQERALVAASTSGGRTNYADSVKGRVTISRDKAKNTVYLQMNSLKPEDTAVYYCARTSYRFYRKRYYWGQGTQVTVSS	high polyreactivity
QVKLVESGGGVVQAGGSLSLSCAASGRIFGGNAMGWYRQAPGKERELVAAISRTGGSTYYADSVKGRFTISRDIAKNTVYLQMNSLKPEDTAVNYCNAVYRYAHPMEYWGQGTQVTVSS	high polyreactivity
QVQLVESGGGLVQAGGSLRLSCAASGRIFYGNAMGWYRQSPGKERELVASITSSGSTKYADSVKGRFTISRDNAKNTVYLQMNSLKPEDTAVYYCAASSTKRYDTYAGYDYWGQGTQVTVSS	low polyreactivity
QVQIVESGGGLVQAGGSLRLSCAASGGTFPAYAMGWYRHAPGKERELVAAISDDDSTYYADSVKGRFTISRDNAKNTVYLQKNSLKPEDTAVYYCNVEYWYYPSVEYSWTAYDYWGQGTQVTVSS	low polyreactivity
QVQLVESGGGLVQAGGSLRLSCAASGIIFRRYAMGWYRQAPGKERELVAAISSRGGSTYYADSVKRRFTISRDNAKNTVYLQMNSLKPEDTAVYYCAKGFSGTGGSGDFGYWGQGTQVTVSS	high polyreactivity
QVQLVQSGGGLVQAGGSLRLSCAASGRTFPIYAMGWYRQAPWKERELVAAITRGGRTNYADSVMGRFTISRDNAKNTVYLQMNSLKPEDTAVYYCDARTYGTYLYAEYDYWGQCTQVTVSS	high polyreactivity
QVQLVESGGGLVQAGGSLRLSCAASGFTLAGYDMGWSRQAPGKERELVATLSTYADSVKGRFTISRDNAKNTVYLQMNSLKPEDTAVYYCAKKYVWTHNYWGQGTQVTVSS	low polyreactivity

Sequence	polyreactivity (PSR sort gate)
QVQLVESGGGLVQAGGSLRLSCDASGSIFYYNAMGWYRQAPGKERELVAAISVSGGSTYYADSVKGRFTISRDNAKNTVYLQMNSLKPEDTAVYYCAAEWLYYYWLPGRADYLEYDYWGQGTQVTVSS	low polyreactivity
QVQLVESGGGLVQAGGSLRLSCAASGSIFGWYAMGWYRQAPGKERELVAAISWDGGDTYYADSVKGRFTISRDNAKNTVYLQMNSLKPEDTAVYYCAAELGYYDYGSYYSYDYWGQGTQVTVSS	high polyreactivity
QVHLVESGGGLVQAGGSLRLSCADSGSIFRYYAMGWYRQAPGKEREMFARISWSGVSTYYADSVKGRFTISRDNAKNTVYLQMNSLKTEDTADYYCAGVDFRGYRYDLDYWGQGTQVTVSS	high polyreactivity
QVQLVESGGGLVQAGGSLRLSCAASGLTFVWYVMGWYRQAPGKERELVAAITSGGTTYYADSVKGRFTISRDNAKNTVYLQMNSLKPEDTAVYYCAAQWAGYGDLPWPYSVIVEFYYWGQGTQVTVSS	low polyreactivity
QVQLVESGGGLVQAGGSLRLSYAASGSTFRVYAMGWYRPATGKERELVAAISRSGGRTYYADSVKGRFTISRDNAKNTVYLQMNSLKPEDTAVYYCAADYKYTAVSDDYWGQGTQVTVSS	high polyreactivity
QDQLVESGGGLVQAGGSLRLSCAASGRTFRSYAMGWSRQAPGKERELVAAISTRGGSTYYADSVKGRFTISRDYAKNTVYLQMNSLKPEDTAVYYCAARGTPSARYGDWGQGTQVTVSS	high polyreactivity
QVQLVESGGGLVQAGVSLRLSCAASGNIFRYYVMGWYRQAPGKEREFVAAITSSGGSTYYADSVKGRFTISRDNAKKSFYLQMNSLKPEDSAVYYCAKDYWDPGWAEYDYWGQGTQVTVSS	low polyreactivity
QVQLVESGGGLVQAGGSLRLSCAASGSIICVNAMGWYRQATGKERELVAAISSTGGSTYYADSVKGRFTISRDNAKNTVYLQMNSLKPEDTAVYYCNTDYSKSIGDGYAGFDYWGQGTQVTVSS	low polyreactivity
QVQLVESGGGLVQAGGSLRLICAASGFNLEYYSMGWYRQATGKERELVAVITESDGNTYYPDSVKGRFTISRDTAKNTVYLQMYSLKPEDTALYYCAAPYSFIQGGIRRGYHGYVYWGQGTQVTVSS	low polyreactivity
QVQLVESGGGLDQAVGSLRLSCAASGSIFKPYAMGWYRQAPGKERELVAGITAGGGSTYYADSVKGRFTISRDNAKNTVYLQMNSLKPEDTAVYYCSVDPYNIFTDDIVENDYWGQGTQVTVSS	low polyreactivity
QVQLVESGGGLVQAGGSLRLSCAASGSTFAKYAMGWYRQAPGKERELVAAIRSGGSTNYADSVKGRFTISRDNAKITVYLQMYSLKPEDTAVYYCAAKRDVSRPVYFRNDYWGQGTQVTVSS	low polyreactivity
QVQLVESGGGLVQAGGSLRLSCAASGRTFYYYTMGWYRQAPGKERELVAAITWNGGSTYYADSVKGRFTISRDNAKNTVYLQMNSLKPEDTGVYYCIARWTWRYDYWGQGTQVTLSS	high polyreactivity
QVQLVESGGGLVQAGGSLRISCAASGITFNVNAMGWSRQAPGKERELVARITTSGGSTSYADSVKGRFTISRDNAKNTVYLQMNSLKPEDTAVYYCAADRARYYSEYDYWGQGTQVTVSS	low polyreactivity
HVQLVESGGGLVQAGGSLRLSCAASGNTFKYYAMGWYRQAPGKERELVAAISYSGGSTYYADSVKGRFTISRDNAKNTVYLQMNSLKPEDTAVYYCAADLDSERYYWGQGTQVTVSS	low polyreactivity
QFQLVESGGGLVQARGSLRLSCAASGSTFRYYGMGWYRQTPGKERELVAAISSSGGSTYYADSVKGRFTISRDNAKITVYLKMNSLKPEDNAVYYCAAGSRFVSSRLYYWGQGTQVTVSS	high polyreactivity
QVQLVESGGGLVQAGGSLRLSCAASGNTFYGYAMGWYRQAPGKERELVASITLSGDSTYYADSVKGRFTISRDNAKNTVYLQMNSLKPEDTAVYDCAGVYTYPLGYYHYTYDYWGQGTQVTVSS	low polyreactivity
QVQLVESGGGLVQAGGSLRLSCAASGSTFEFNDMGWYRQAPGKERELVASIRHSDGSTYYADSVKGRFTISRDNAKNTVYLQMNSLKPEDTAVYYCNKAFQWSGGQVSYDYWGQGTQVTVSS	low polyreactivity
QVQLVESGGGLVQAGGSLRLSCAPSRYIFYPYAMGWYRQAPGKEREFVATISYRGGSTYYADSVKGRFTISRDNAKNTVYLQMNSLKPEDTAVYYCAAREPWYYGYGDYWGHGTQVTVSS	high polyreactivity
QVQLVESGGGLVQAGGSLRLSCAASGYTFKYNAMGWYRQAPGKERELVAAISSRGDRTYYADSVKGRFTISRDNAKNTVYLQMNSLKPEDTVVYYCNKVARPRSRNDSWGQGTQVTVSS	high polyreactivity
QVQLVESGGGLVQAGGSLRLSCAASGSIFWRYAMGWYRQAPGKERELVAAINYSTTRTYYADSVKGRFTISLDNAKNTVYLQMNSLKPEDTAVYYCAADSRVDEGEYWGQGTQVTVSS	high polyreactivity
QVQHVESVGGLVQAGGSLRLSCAASGYIFIRYPMGCYRQANGKERELDAAITWSDGTTYYADSVKGRFTISRDNAKNTVYLQMNSLKPEDTAVYYCAADRKVESVSRYDYWGQGTQVTVSS	low polyreactivity
